In patent US20110144312A1 (Kyowa Kirin, published 2011):

Assays:
[1] = molecular target: T1, mouse IL-10Rα on splenocytes (mouse, UniProt Q61727 17-575); assay: flow cytometry on splenocytes
T1 construct: whole, on cells
T1 sequence (looked up): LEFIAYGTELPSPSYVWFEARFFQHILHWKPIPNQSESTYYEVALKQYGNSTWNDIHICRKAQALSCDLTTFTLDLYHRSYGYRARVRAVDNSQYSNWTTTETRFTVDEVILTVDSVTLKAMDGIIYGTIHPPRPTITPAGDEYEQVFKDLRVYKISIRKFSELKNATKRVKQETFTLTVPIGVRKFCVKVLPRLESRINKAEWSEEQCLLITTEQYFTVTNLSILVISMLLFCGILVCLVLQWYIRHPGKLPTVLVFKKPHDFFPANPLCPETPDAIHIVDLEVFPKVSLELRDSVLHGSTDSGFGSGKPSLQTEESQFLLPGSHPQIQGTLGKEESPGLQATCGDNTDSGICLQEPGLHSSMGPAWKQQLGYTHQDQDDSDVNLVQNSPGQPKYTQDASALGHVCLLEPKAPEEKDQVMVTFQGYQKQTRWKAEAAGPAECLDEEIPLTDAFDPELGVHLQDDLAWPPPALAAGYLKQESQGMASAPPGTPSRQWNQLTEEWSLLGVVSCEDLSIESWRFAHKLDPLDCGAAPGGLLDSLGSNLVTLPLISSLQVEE

[2] = molecular target: T2, cynomolgus macaque IL-10Rα on PBMC (cynomolgus macaque, UniProt Q13651 22-578 (human entry)); assay: flow cytometry on cynomolgus PBMC
T2 construct: Full-length entry cloned from cynomolgus T cells; endogenous on primary PBMC in the assays; also called IL-10Rα on the surface of cynomolgus lymphocytes and monocytes
T2 chain: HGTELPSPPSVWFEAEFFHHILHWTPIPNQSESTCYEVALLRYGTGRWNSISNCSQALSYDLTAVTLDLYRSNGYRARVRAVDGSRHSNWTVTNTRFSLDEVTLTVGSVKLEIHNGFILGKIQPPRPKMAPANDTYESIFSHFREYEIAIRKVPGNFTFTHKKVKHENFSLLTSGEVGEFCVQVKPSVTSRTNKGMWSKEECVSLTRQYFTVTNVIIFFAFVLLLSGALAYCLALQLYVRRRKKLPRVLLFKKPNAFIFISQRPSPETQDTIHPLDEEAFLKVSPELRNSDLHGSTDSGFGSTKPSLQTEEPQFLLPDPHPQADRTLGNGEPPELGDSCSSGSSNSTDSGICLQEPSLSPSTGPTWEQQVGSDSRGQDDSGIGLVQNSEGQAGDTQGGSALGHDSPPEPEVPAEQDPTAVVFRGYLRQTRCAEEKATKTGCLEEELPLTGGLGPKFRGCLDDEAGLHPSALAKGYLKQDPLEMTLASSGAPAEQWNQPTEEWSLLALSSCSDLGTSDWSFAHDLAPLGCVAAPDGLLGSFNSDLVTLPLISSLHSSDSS

[3] = molecular target: T3, cynomolgus macaque IL-10Rα extracellular domain fused to the Fc portion of human IgG1 (cynomolgus macaque); assay: ELISA, coated cynomolgus IL-10Rα:hFc
T3 construct: The entry includes the signal peptide; also called cynomolgus IL-10Rα:hFc; cyIL-10Rα
Excerpt: Titration of anti-IL-10Rα antibodies binding to coated chimp or cynomolgus IL-10Rα:hFc. Binding was detected with anti-human kappa-HRP, anti-mouse IgG-HRP, or anti-rat IgG-HRP. Different anti-rat-IgG HRP and anti-mouse IgG antibodies were used to generate the data in panels A and B. The nature of these secondary antibodies can affect the results and lead to different maximum binding (BMAX). The BMAX from these studies are described in Table 5.
IL-10Rα Specific Antibody Detection ELISA: Antibody titers, specificity, and production by hybridomas were determined by ELISA. In brief, 96 well flat bottom Maxisorb plates were coated with 50 μl of hIL-10Rα (R&D Systems, Minneapolis, Minn.) at 1 μg/ml in carbonate buffer (pH 9.4) overnight at 4° C. or at 37° C. for 1 hour. After washing three times with PBS/0.05% Tween 20, plates were blocked with Superblock blocking buffer in TBS (Pierce) at room temperature for 30 minutes. The serum, supernatant, or purified antibody was diluted in blocking buffer, added to the wells, and the plates were incubated for 1 hour at room temperature. The plates were washed 3 times with PBS/0.05% Tween 20 and peroxidase-conjugated goat anti-human IgG (Fcγ specific), anti-rat IgG, or anti-mouse IgG detection antibodies (Jackson Immunoresearch) were added at a dilution of 1:5000. Multiple lots of anti-rat and anti-mouse IgG antibodies were used in different assays. […] Following a 1 hour incubation at room temperature, the plates were washed and the TMB (Sigma) substrate was added and incubated at room temperature for 5 to 10 minutes. The reaction was stopped with H₂SO₄ (LabChem) and the optical density was measured at 450 nm by a microplate reader. A second ELISA protocol using soluble human, chimp and cynomolgus IL-10Rα:hFc recombinant proteins as the coating antigens was also employed. In this assay, binding of specific human IgG were detected with a peroxidase labeled sheep anti-human kappa antibody (The Binding Site, Birmingham, UK).

Ac-YHSNGYRARVRA-NH2 = molecular target: T4, Ac-YHSNGYRARVRA-NH2 (human); assay: dot blot on PVDF or nitrocellulose membrane
T4 peptide: Ac-YHSNGYRARVRA-NH2
Protocol: (§1) Methods to detect antibody binding to peptides derived from the human IL-10Rα sequence: Multiple methods were employed to detect binding of anti-human IL-10Rα antibodies to peptides derived from the extracellular domain of human IL-10Rα that have been reported by Reineke, et al. (Reineke, et al., Protein Sci 7:951 (1998)) to be included in the IL-10 binding site of the receptor. The following amide synthesized peptides were tested: Ac-[…]-NH2, Ac-[…]-NH2, Ac-[…]-NH2, Ac-[…]-NH2, Ac-[…]-NH2 (SEQ ID NO. 81-85). In addition, the following biotinylated peptides were tested: Biotin-[…]-NH2, Biotin-[…]-NH2 (SEQ ID NO. 86-87). The amide peptides were synthesized by A&A Labs, LLC (San Diego, Calif.) and the biotinylated peptides were synthesized by GenScript (Piscataway, N.J.) both at >95% purity and reconstituted at 20 mg/ml in DMSO. In one assay design peptides were spotted at 5 μg/spot in PBS onto PVDF membranes or nitrocellulose membranes that had been prepared according to the manufacturer's instructions. The membranes were incubated with anti-IL-10Rα antibodies using standard Western blotting methods (e.g. Towbin, et al., Proc Natl Acad Sci 76:4350 (1979)). Native human IL-10Ra:hFc and heat denatured human IL-10Ra:hFc were also spotted at 1 μg/spot on the membranes as controls. Negative controls included an irrelevant peptide and isotype controls. […] None of the antibodies bound to the spotted denatured protein or to any of the peptides derived from the human IL-10Ra extracellular domain or the irrelevant peptide.

Ac-TVTNTRFSVD-NH2 = molecular target: T5, Ac-TVTNTRFSVD-NH2 (human); assay: dot blot on PVDF or nitrocellulose membrane
T5 peptide: Ac-TVTNTRFSVD-NH2
Protocol: as §1

Ac-SIFSHFREYE-NH2 = molecular target: T6, Ac-SIFSHFREYE-NH2 (human); assay: dot blot on PVDF or nitrocellulose membrane
T6 peptide: Ac-SIFSHFREYE-NH2
Protocol: as §1

Ac-GNFTFTHKKV-NH2 = molecular target: T7, Ac-GNFTFTHKKV-NH2 (human); assay: dot blot on PVDF or nitrocellulose membrane
T7 peptide: Ac-GNFTFTHKKV-NH2
Protocol: as §1

Ac-SVASRSNKGM-NH2 = molecular target: T8, Ac-SVASRSNKGM-NH2 (human); assay: dot blot on PVDF or nitrocellulose membrane
T8 peptide: Ac-SVASRSNKGM-NH2
Protocol: as §1

[4] = molecular target: T9, Biotin-SGSTLDLYHSNGYRARVRAVDG-NH2 (human, N-terminal biotin, C-terminal amide (-NH2)); assay: dot blot on PVDF or nitrocellulose membrane
T9 peptide: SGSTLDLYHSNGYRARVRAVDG
Protocol: as §1

[5] = molecular target: T10, Biotin-SGSTYSIFSHFREYEIAIRKV-NH2 (human, N-terminal biotin, C-terminal amide (-NH2)); assay: dot blot on PVDF or nitrocellulose membrane
T10 peptide: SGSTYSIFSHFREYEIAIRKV
Protocol: as §1

human IL-10Rα on cells = molecular target: T11, human IL-10Rα on cells (human, UniProt Q13651 22-578); assay: flow cytometry on RPMI-8226 cells; biotinylated human IL-10, streptavidin-FITC [B]
T11 construct: Full-length entry with signal peptide; endogenous on PBMC and RPMI-8226 cells, transfected in EL-4 and CHO-K1 cells; also called IL-10R on RPMI-8226 cells; IL-10Rα on human PBMC, lymphocytes and monocytes
T11 sequence: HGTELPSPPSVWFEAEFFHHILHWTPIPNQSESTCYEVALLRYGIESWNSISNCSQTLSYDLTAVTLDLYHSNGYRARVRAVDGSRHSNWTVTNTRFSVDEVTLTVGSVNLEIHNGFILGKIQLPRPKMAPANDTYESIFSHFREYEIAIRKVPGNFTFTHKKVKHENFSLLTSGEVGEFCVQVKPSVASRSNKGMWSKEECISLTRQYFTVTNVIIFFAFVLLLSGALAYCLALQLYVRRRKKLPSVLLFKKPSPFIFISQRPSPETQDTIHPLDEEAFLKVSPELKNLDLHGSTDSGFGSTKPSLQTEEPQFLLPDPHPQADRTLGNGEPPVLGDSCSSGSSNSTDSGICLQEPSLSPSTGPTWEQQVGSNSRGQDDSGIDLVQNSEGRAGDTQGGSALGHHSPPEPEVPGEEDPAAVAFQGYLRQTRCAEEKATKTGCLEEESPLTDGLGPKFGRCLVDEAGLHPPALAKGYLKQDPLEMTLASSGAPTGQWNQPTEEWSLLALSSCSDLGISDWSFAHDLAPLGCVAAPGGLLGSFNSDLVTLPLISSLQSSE
Excerpt: RPMI-8226 cells were stained with human IL-10 biotin followed by anti-human IL-10Rα antibodies, and binding of antibodies was detected with anti-human IgG-PE or anti-rat IgG-PE. A) Filled histograms represent the maximum binding of the antibodies in the absence of IL-10, the open histograms are in the presence of human IL-10; B) Maximum IL-10 binding (closed histogram) is inhibited by anti-IL-10 (open histogram.) The shaded histogram represents binding of a negative control protein. Binding of IL-10 was detected with streptavidin-FITC.
IL-10 Blocking Assay: To determine if the anti-human IL-10Rα antibodies were blocked by binding of IL-10 to the receptor on the cell surface, a flow cytometric protocol was used. In the flow cytometric assay, RPMI-8226 cells were washed and resuspended in staining buffer and then incubated with biotinylated human IL-10 or a negative control protein (R&D Systems) for 30 minutes on ice. The anti-IL-10Rα antibodies were then added to the cells for an additional 30 minutes. […] After another wash, the cells were fixed with 1% paraformaldehyde and analyzed on a FACS Calibur. The fold reduction in antibody binding was determined using the geometric mean fluorescence intensity in the following formula: Fold reduction=geometric mean fluorescence intensity in the absence of IL-10/geometric mean fluorescence intensity binding in presence of IL-10.

| Binder | binding result [1] | binding result [2] | BMAX [3] | binding result (Ac-YHSNGYRARVRA-NH2) | binding result (Ac-TVTNTRFSVD-NH2) | binding result (Ac-SIFSHFREYE-NH2) | binding result (Ac-GNFTFTHKKV-NH2) | binding result (Ac-SVASRSNKGM-NH2) | binding result [4] | binding result [5] | binding result (human IL-10Rα on cells) |
| --- | --- | --- | --- | --- | --- | --- | --- | --- | --- | --- | --- |
| 136D29 (antibody, V domains shown, Hybridoma antibody, human IgG4, kappa light chain #2 (the chain identified as correct); also called human anti-human IL-10Rα monoclonal antibody 136D29; 136D9 [sic]) VH: QVQLVQSGAEVKKPGASVKVSCKVSGFTLTELSMHWVRQAPGKGLEWMGGFDPDDGETIYAQKFQGRVSMTEDTSTDTAYMELSSLRSEDTAVYYCATGGYYGPVGMDVWGQGTTVTVSS VL: DIQMTQSPSSLSASVGDRVTITCRASQGISIWLAWYQQKPEKAPKSLIYAASSLQSGVPSRFSGSGSGTDFTLTISSLQPEDFATYYCQQYNSYPLTFGGGTKVEIK | no binding | binds | 1.31 OD | no binding (tested: 5 µg/spot) | no binding (tested: 5 µg/spot) | no binding (tested: 5 µg/spot) | no binding (tested: 5 µg/spot) | no binding (tested: 5 µg/spot) | no binding (tested: 5 µg/spot) | no binding (tested: 5 µg/spot) | – |
| recombinant human IL-10 (ligand, UniProt P22301 19-178, looked up, also called human IL-10 biotin) SPGQGTQSENSCTHFPGNLPNMLRDLRDAFSRVKTFFQMKDQLDNLLLKESLLEDFKGYLGCQALSEMIQFYLEEVMPQAENQDPDIKAHVNSLGENLKTLRLRLRRCHRFLPCENKSKAVEQVKNAFNKLQEKGIYKAMSEFDIFINYIEAYMTMKIRN | – | – | – | – | – | – | – | – | – | – | binds |
